# In patent publication US20140161804A1 (AbbVie / Abbott, published 2014):
# Positions count from the first letter of the chain named.
# B1: hMAK199-6-h10F7-M11.8 DVD-Ig (bispecific antibody, human IgG1, kappa, L234A L235A)
# heavy: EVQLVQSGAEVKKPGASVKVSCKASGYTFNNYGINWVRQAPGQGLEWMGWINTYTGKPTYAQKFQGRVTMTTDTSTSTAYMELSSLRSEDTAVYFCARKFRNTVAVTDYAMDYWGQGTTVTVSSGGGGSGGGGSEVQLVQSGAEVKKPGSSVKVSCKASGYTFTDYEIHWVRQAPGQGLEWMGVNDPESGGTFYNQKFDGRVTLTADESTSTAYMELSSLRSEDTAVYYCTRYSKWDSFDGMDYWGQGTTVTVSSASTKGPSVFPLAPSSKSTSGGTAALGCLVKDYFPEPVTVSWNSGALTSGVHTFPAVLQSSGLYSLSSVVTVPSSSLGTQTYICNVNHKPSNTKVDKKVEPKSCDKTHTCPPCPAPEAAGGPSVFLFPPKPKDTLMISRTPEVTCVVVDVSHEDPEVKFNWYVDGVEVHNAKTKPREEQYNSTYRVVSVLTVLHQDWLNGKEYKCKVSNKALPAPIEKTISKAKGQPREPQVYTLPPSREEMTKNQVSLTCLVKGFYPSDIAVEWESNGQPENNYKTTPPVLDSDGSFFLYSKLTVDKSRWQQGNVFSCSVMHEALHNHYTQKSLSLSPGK
# light: DIQMTQSPSSLSASVGDRVTITCRASQDIYDVLNWYQQKPGKAPKLLIYYASRLQSGVPSRFSGSGSGTDFTLTISSLQPEDFATYYCQQGITLPPTFGQGTKLEIKRGGSGGGGSGDIQMTQSPSSLSASVGDRVTITCRASSGIISYIDWFQQKPGKAPKRLIYATFDLASGVPSRFSGSGSGTDYTLTISSLQPEDFATYYCRQVGSYPETFGQGTKLEIKRTVAAPSVFIFPPSDEQLKSGTASVVCLLNNFYPREAKVQWKVDNALQSGNSQESVTEQDSKDSTYSLSSTLTLSKADYEKHKVYACEVTHQGLSSPVTKSFNRGEC
# notes: DVD-Ig; IgG1 234,235 mut, kappa; GS10 linkers; also called HMAK199-6-GS10-H10F7-M11 DVD
# B2: hMAK199-4-h10F7-M11.4 DVD-Ig wt (bispecific antibody, human IgG1, kappa)
# heavy: not shown
# light: DIQMTQSPSSLSASVGDRVTITCRASQDIENYLNWYQQKPGKAPKLLIYYTSRLQSGVPSRFSGSGSGTDFTLTISSLQPEDFATYFCQQGNTQPPTFGQGTKLEIKRTVAAPDIQMTQSPSSLSASVGDRVTITCRASSGIISYIDWFQQKPGKAPKRLIYATFDLASGVPSRFSGSGSGTDYTLTISSLQPEDFATYYCRQVGSYPETFGQGTKLEIKRTVAAPSVFIFPPSDEQLKSGTASVVCLLNNFYPREAKVQWKVDNALQSGNSQESVTEQDSKDSTYSLSSTLTLSKADYEKHKVYACEVTHQGLSSPVTKSFNRGEC
# notes: DVD-Ig; wild-type IgG1 (CG1 Z NONA), kappa; short (SS) linkers; also called HMAK199-4-SS-H10F7-M11 DVD
# B3: hMAK195-21-h10F7-A11.8 DVD-Ig (bispecific antibody, human IgG1, kappa, L234A L235A)
# heavy: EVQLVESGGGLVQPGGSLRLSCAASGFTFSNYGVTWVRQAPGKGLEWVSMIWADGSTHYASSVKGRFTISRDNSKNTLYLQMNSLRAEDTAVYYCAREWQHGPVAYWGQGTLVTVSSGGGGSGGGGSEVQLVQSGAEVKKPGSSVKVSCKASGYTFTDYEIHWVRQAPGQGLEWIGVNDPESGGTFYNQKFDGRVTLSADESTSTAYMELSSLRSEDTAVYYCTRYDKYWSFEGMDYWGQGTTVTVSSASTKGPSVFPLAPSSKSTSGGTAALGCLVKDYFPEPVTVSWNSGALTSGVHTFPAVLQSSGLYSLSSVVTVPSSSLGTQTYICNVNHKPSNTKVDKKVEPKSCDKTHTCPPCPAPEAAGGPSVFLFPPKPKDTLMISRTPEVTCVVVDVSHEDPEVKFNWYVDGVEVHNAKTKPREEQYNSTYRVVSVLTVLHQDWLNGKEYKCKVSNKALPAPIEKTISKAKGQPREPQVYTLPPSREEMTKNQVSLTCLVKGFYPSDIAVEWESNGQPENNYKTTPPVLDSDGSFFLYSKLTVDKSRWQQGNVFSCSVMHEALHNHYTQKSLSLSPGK
# light: DIQMTQSPSSLSASVGDRVTITCRASQLVSSAVAWYQQKPGKAPKLLIYWASARHTGVPSRFSGSGSGTDFTLTISSLQPEDFATYYCQQHYKTPFTFGQGTKLEIKRGGSGGGGSGDIQMTQSPSSLSASVGDRVTITCRASSGIISYIDWFQQKPGKAPKRLIYATFDLASGVPSRFSGSGSGTDYTLTISSLQPEDFATYYCRQVGSYPETFGQGTKLEIKRTVAAPSVFIFPPSDEQLKSGTASVVCLLNNFYPREAKVQWKVDNALQSGNSQESVTEQDSKDSTYSLSSTLTLSKADYEKHKVYACEVTHQGLSSPVTKSFNRGEC
# notes: DVD-Ig; IgG1 234,235 mut, kappa; GS10 linkers; light chain shared with the M11 DVD-Ig; also called hMAK195-21-GS10-A11 DVD
# B4: hMAK195-21-h10F7-A6.8 DVD-Ig (bispecific antibody, human IgG1, kappa, L234A L235A)
# heavy: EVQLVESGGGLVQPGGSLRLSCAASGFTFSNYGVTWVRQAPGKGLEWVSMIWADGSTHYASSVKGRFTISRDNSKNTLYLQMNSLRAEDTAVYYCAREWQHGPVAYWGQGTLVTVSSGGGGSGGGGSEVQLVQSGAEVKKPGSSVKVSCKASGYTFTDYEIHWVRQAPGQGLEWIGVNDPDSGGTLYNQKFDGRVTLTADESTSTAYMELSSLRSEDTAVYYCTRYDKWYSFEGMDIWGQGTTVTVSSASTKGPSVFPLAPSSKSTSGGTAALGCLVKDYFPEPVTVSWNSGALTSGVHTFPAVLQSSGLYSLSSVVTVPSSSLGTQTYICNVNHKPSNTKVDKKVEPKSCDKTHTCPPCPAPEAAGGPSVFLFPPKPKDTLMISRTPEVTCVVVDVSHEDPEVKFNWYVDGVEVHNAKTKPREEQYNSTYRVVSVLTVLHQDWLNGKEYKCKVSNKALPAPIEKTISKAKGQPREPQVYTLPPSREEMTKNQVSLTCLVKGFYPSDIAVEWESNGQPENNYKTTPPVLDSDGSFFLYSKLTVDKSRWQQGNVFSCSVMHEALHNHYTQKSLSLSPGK
# light: B3 light with R141S, S144Q, I147R, A160S, S210N, E213G
# notes: DVD-Ig; IgG1 234,235 mut, kappa; GS10 linkers; also called hMAK195-21-GS10-A6 DVD
# B5: hMAK195-24-h10F7-A6.8 DVD-Ig (bispecific antibody, human IgG1, kappa, L234A L235A)
# heavy: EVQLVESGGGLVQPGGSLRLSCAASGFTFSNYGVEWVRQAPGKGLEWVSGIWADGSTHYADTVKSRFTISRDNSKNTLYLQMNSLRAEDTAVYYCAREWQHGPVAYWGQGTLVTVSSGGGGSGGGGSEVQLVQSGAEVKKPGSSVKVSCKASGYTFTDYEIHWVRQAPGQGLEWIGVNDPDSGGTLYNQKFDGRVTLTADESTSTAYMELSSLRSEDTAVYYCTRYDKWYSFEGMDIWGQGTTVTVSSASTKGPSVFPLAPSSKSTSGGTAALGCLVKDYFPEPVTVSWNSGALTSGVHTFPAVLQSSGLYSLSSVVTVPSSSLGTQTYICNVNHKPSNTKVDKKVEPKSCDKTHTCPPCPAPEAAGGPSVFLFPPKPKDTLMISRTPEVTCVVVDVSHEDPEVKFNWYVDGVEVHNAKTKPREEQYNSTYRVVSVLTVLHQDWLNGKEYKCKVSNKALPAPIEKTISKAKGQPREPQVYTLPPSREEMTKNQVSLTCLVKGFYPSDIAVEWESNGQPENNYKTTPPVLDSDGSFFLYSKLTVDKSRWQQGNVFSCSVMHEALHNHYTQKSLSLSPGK
# light: B3 light with R24K, A53T, R54L, K93R, R141S, S144Q, I147R, A160S, S210N, E213G
# notes: DVD-Ig; IgG1 234,235 mut, kappa; GS10 linkers; also called hMAK195-24-GS10-A6 DVD
# B6: hMAK195-24-h10F7-A16.8 DVD-Ig (bispecific antibody, human IgG1, kappa, L234A L235A)
# heavy: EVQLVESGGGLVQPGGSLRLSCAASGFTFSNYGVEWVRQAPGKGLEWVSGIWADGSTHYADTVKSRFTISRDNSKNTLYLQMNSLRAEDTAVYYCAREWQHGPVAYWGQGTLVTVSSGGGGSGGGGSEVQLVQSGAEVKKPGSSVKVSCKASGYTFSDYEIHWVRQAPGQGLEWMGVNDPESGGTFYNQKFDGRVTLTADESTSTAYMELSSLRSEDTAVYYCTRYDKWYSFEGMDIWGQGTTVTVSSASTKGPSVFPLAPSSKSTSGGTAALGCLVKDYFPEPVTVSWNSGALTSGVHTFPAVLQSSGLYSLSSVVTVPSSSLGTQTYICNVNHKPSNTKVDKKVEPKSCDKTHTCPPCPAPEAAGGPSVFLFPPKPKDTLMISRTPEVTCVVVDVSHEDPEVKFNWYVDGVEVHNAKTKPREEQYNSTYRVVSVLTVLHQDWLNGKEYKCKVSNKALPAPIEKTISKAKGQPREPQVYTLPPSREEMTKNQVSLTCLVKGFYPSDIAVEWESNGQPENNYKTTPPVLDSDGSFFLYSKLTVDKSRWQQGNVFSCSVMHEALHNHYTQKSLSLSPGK
# light: B3 light with R24K, A53T, R54L, K93R, R141S, S144Q, I147R, A160S, S210N, E213G
# notes: DVD-Ig; IgG1 234,235 mut, kappa; GS10 linkers; light chain shared with the A6 DVD-Ig; also called hMAK195-24-GS10-A16 DVD
# B7: hMAK195-24-h10F7-A11.8 DVD-Ig (bispecific antibody, human IgG1, kappa, L234A L235A)
# heavy: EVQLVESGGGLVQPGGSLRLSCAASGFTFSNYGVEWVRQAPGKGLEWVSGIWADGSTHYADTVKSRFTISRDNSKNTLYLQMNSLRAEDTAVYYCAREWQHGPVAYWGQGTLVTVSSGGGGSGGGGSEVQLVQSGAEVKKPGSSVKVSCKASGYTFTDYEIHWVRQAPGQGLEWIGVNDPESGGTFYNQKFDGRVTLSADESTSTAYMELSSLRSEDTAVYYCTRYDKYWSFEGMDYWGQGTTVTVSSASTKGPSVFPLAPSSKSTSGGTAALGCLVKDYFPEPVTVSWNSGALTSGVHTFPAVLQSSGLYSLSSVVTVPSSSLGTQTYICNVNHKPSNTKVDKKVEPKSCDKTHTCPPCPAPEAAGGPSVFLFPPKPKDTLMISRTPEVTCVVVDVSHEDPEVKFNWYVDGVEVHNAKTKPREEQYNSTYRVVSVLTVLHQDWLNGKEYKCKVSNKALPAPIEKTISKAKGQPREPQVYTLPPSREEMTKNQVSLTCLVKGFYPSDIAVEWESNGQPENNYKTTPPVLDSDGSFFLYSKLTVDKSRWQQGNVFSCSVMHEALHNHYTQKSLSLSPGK
# light: B3 light with R24K, A53T, R54L, K93R
# notes: DVD-Ig; IgG1 234,235 mut, kappa; GS10 linkers; also called hMAK195-24-GS10-A11 DVD
# B8: hMAK195-21-h10F7-A16.8 DVD-Ig (bispecific antibody, human IgG1, kappa, L234A L235A)
# heavy: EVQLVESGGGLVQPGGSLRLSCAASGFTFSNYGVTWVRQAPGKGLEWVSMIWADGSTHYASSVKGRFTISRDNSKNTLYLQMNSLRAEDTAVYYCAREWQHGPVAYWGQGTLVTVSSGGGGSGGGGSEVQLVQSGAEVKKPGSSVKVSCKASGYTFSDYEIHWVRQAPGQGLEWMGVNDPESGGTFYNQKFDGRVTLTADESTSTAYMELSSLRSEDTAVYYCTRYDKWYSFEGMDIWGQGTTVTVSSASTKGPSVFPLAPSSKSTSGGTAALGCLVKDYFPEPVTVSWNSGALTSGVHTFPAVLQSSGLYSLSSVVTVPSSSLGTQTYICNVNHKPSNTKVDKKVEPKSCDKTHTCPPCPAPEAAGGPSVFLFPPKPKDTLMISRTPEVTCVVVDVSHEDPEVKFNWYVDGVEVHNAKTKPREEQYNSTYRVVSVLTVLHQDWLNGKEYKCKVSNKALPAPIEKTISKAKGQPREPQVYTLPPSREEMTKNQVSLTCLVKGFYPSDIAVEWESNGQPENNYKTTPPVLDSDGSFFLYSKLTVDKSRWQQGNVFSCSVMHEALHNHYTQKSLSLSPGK
# light: B3 light with R141S, S144Q, I147R, A160S, S210N, E213G
# notes: DVD-Ig; IgG1 234,235 mut, kappa; GS10 linkers; light chain shared with the A6 DVD-Ig; also called ShMAK195-21-h10F7-A16.8 DVD-Ig; hMAK195-21-GS10-A16 DVD
# B9: hMAK195-21-h10F7-M10.8 DVD-Ig (bispecific antibody, human IgG1, kappa, L234A L235A)
# heavy: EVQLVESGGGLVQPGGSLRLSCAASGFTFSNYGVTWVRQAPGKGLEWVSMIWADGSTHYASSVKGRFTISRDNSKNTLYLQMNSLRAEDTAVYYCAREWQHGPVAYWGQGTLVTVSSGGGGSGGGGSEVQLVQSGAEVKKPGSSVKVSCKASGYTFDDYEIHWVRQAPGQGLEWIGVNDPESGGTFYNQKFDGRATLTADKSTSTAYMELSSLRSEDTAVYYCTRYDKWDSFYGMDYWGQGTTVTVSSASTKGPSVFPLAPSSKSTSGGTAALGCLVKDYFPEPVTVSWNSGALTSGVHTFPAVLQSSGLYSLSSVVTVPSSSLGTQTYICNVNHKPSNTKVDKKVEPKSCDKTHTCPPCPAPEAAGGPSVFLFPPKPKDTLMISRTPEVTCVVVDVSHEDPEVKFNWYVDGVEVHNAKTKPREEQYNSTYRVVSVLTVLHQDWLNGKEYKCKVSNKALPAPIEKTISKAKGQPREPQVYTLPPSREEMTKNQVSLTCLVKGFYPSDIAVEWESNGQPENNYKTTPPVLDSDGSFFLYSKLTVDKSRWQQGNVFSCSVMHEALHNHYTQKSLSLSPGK
# light: B3 light with R141S, I146S, D170E, Y188F, R206H, V208L, E213D
# notes: DVD-Ig; IgG1 234,235 mut, kappa; GS10 linkers; also called hMAK195-21-GS10-M10 DVD
# Molecular target: T1, Human IL-17A (human, UniProt Q16552 20-155, limits assumed)
# T1 construct: Biotinylated in the ELISAs; purified recombinant protein in SPR; also called hIL17A; hIL-17
# Assay: ELISA, captured DVD-Ig, biotin-human IL-17 titrated
# Protocol: The following protocol is used to characterize the binding of TNF/IL-17 DVD-Ig proteins to human TNF and IL-17 by enzyme-linked immunosorbent assay (ELISA). An ELISA plate was coated with 50 μl per well of goat anti mouse IgG-Fc at 2 μg/ml, overnight at 4° C. The plate was washed 3 times with PBS/Tween. 50 μl Mab diluted to 1 μg/ml in PBS/0.1% BSA was added to appropriate wells and incubated for 1 hour at room temperature (RT). The plate was washed 3 times with PBS/Tween. 50 μl of serial diluted biotin-human TNF or IL-17 was added to appropriate wells and incubated for 1 hour at RT. The plate was washed 3 times with PBS/Tween. 50 μl of streptavidin-HRP diluted 1:10,000 in PBS/0.1% BSA was added to appropriate wells and incubated for 1 hour at RT. The plate was washed 3 times with PBS/Tween. 50 μl of TMB was added to appropriate wells and the reaction allowed to proceed for 1 minute. The reaction was stopped with 50 μl/well 2N H₂SO₄ and the absorbance read at 450 nm.
# T1 sequence (Q16552 20-155 limits assumed): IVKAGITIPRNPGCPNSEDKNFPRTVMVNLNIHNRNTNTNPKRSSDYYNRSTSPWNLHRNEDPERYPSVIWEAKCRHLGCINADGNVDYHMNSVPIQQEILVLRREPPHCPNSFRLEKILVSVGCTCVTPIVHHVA
row,Binder,EC50 [pM]
1,B1,104
2,B2,> 500
3,B3,300
4,B4,130
5,B5,188
6,B6,93
7,B7,295
8,B8,230
9,B9,100
